Where “and” joins values, the source holds several entries; their conditions need not be identical. Equal entries are not always repeated.
System: Bacillus subtilis DB104 (SP-AmyQ fusion secretion)
Experiment: AmyQ secretion efficiency, weighted average sort bin (1 = best secretion, 10 = worst) (bin number (weighted average, 1-10)); higher = lower secretion efficiency
Procedure, shortened: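 In this assay, the secretion score is defined as the average bin number weighted by read frequency, normalised to beads per bin, with low-abundance sequences not counted. B. subtilis DB104 cells expressing mature AmyQ behind designed signal peptides (amyE-integrated) were enclosed with fluorescein-starch in ~65 nL alginate beads at about 0.3 cells per bead. Beads grew about 13 h at room temperature, were stained with nile red, and occupied beads went into 10 equally populated green/red fluorescence ratio bins by large-particle flow cytometry, whose amplicons were Illumina-sequenced.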

| Sequence | AmyQ secretion efficiency |
| --- | --- |
| MKRMIVRMTLPLLIVCLAFSSFSASAPVGARAASE | 2.02 |
| MKKAFILSAAAAVGLFTFGGVQQSSAKEL | 4.21 |
| MKWMCSICCAAVLLAGGAAQGEAV | 3.2 |
| MKKSYKATALFLGLTPAGANAADL | 8.17 |
| MKKWIYVVLVLSIAGIGGFSVHDASS | 7.82 |
| MPYLKRVLLLLVTGLFMSLFAVTATASSQTG | 1.19 |
| MPIKKKVMMCLAVTLVFGSMRRKTLTNSGGFKE | 7.75 |
| MKKKQVMLALTAAAGLGLTALHSAPANKAAPL | 5.6 |
| MKKKLAAGLTASAIVGTTLVVTPAEEATI | 6.94 |
| MKKSQYFIVFICFFVLFSVHPIAGAAADS | 3.96 |
| MKKQIITATTAVVLGSTLFAGAGSAQSI | 1.62 |
| MNKKYFVLIVCIIFTSALFPTDKKVTAAQG | 1.1 |
| MRSKKLWISLLFALTLIFTMAFSNMSCQAAGK | 2.77 |
| MKKQIKKKKTAVVLGSTLFAGAASAQSI | 7.3 |
| MKKVLMAFIICLSLILSVLAAPPSGSAVSAKAESV | 2.05 |
| MRPVFPLILSAVLFLSCFSTSVAITVTFGARQTEASASKR | 3.9 |
| MKRTRIPMYLALGAALTIAPLSFASAEEN | 3.6 |
| MPYLKRMINFNNVLLLLVTGLFMSLFAVTATASAQTG | 1.05 |
| MNLRKILLSSALSLGMLVSAAPVLNTSS | 5.87 |
| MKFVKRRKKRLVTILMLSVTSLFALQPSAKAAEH | 2.78 |
| MKRRKVLTGSVLSLGLLVSASPAFATSP | 2.61 |
| MPYLKRVLLLLVTGLFMSLFAVTATASHQTG | 1.34 |
| MKKMLGKSGKQTTTGVFFAVVVKDVFAAGL | 6.37 |
| MKNMSCKTSGSTTGGTSFLTIGPLAHAQNS | 6.59 |
| MKLSVKIAGVLTVAAAAMRKRKKRATAKGN | 7.22 |
| MKKAFLVFLSVVLVTTVFLVKQQESVAQNKQL | 2.89 |

| Sequence | AmyQ secretion efficiency |
| --- | --- |
| MKKAFLVFLSVVLVTTVFLVKQQESVLQAKQL | 4.04 |
| MKKKQVMLALTAAAGLHSAPAAKAAPL | 3.17 |
| MLCVMMLLFSAIAKRRVSAQAKDQ | 7.83 |
| MRSKKLWISLLFALFTMAFSNMSAQAAGK | 2.16 |
| MRKKRYGKCRQGSSLTLGSLLPAGYATAKED | 8.17 |
| MKKKLAAGLTASAIVGTTLVVTPAEAATR | 2.36 |
| MKTKTLFIFSAILTLSIQAPNETFAQTA | 2.35 |
| MKRKIVRMTLPLLIVCLAFSSFSASARAASE | 2.21 |
| MFKKLRKKKKRLTFSLSLVLPLDGHAKAQEV | 6.86 |
| MKKRLIAPMLLSAASLAFFAMSGSAQAEED | 2.35 |
| MKSKWMSGLLLVAVGFSFTQVMGGFFAVHAGET | 7.03 |
| MAIIIAIIAAVIVIAALITFNVRNFSPG | 6.5 |
| MKKLLAAGIIGLLTVSIASPGFVFSFAAEK | 8.62 |
| MKSKGSIMACLILFSFTITTFINTETISCFSN | 7.73 |
| MKLKSKLFVICLAAAAIFTAAGVSANAEALDF | 7.41 and 6.26 |
| MLCVMMLLFSSFPVSAQAKDQ | 5.51 |
| MKLWMRKTLVVLFTIVTFGLVSPPALMADKP | 1.9 |
| MTMLRKIIGWILLLCIIPLFAFTVIASYKEV | 6.87 |
| MRIFKKAVFVIMISFLIATVNVNTCHAAID | 3.94 |
| MKRSISIFITCLLITLLTMGGMIASPASAAGT | 3.79 and 2.48 and 2.42 |
| MPYLKRVLLLLVTGLFMSLFAVTATRSAQTG | 3.54 |
| MSKRLIAPMLLSAASLAFFAMSGSAQAAAY | 3.13 |
| MKKRLIGFLVLVPALIMSGITLDEANKK | 4.52 |
| MKSKGSIMACLILFSFTITTFINTETISNFSN | 7.44 |
| MTGTTVSTAIIIISVMLSFVIAVFHTIHASELTP | 4.15 |
| MKLAKRVSALTPSTTLAIVAKAKEL | 6.85 |

| Sequence | AmyQ secretion efficiency |
| --- | --- |
| MKKIMSAFVGMVLLTIFCFSPQASAEED | 2.74 |
| MIAYFGKCLLLVTIMFLGVLFTAVVVIAGMQQANHG | 5.06 |
| MLCVMMLLFSAIAAFTVTAQAKDQ | 6.83 |
| MKKRTIQVMIMFTLLLTMAFSADAADS | 5 |
| MFNRLFRVCFLAALIMAFTLPNSVYLQKP | 6.77 |
| MRSYIKVLTMCFLGLILFVPTLLADNS | 4.36 |
| MKWMCSICCAAVLLAGGAAQAAAD | 4.17 |
| MKLAKRVSALTPSTTLAIKKKKRAKAKEL | 7.08 |
| MSLYTVIASILLSFLSVLSGGHHESKAFPV | 5.37 |
| MLCVMMLLFSAIAEEEDEEAQAKDQ | 7.25 |
| MFLAKRVSALTPSTTLAITAKAKEL | 7.34 |
| MRSYIKVLTMCFLGLILFVPTGVFGSSPPFAAALADNS | 3.3 |
| MKKWIYVVLVLSIAGIGGKRRVHAASS | 7.83 |
| MKRLFMKSMASLVLFAVVFVFAVKGAPAKAETH | 2 |
| MKKWMAGLFLAAAVLLCLMVPQQYQGASS | 6.35 |
| MKIRKIKKKKRKSFGMLISAVPALAAGT | 7.53 |
| MKRIRIPMTLALGAALTIAPLSFWSAEEN | 6.56 |
| MKNMSCKLVVSVTLFFSFLTIGPLAHVQNS | 4.29 |
| MKRTWNVCLTALLSVLLVAGSVDDHAEAKKP | 1.97 |
| MTGWLIIAVSLAIAIVLFMYTKGEAKAAGM | 7.08 |
| MKRIRIPMTLALGAALTIAPLSFISAEEN | 3.01 |
| MKFVKRRIRRKRTILMLSVTSLFALQPSAKAAEH | 3.06 |
| MRPVFPLILSAVLFLSCFFGARQTEASPSKR | 2.1 |
| MRKSLITLGLASVIGTSSFLIPFTKASAETL | 2.6 |
| MTTTSIFVITCVMAASLTLGSLLPAGYASAKED | 3.58 |
| MKWMCSICCAAVLLAGGACQAEAV | 3.36 |

| Sequence | AmyQ secretion efficiency |
| --- | --- |
| MLRITINIITMFIAAAVISLTGTAEAAEK | 3.59 |
| MKRFSTAYLLLGILCSAAVFLIGAPSRALGKKK | 7.04 |
| MGLGKKLSVAVAASFMSLSISLPGVQWAEG | 3.19 |
| MLKKKWMVGLLAGCLAAGGFSYNAFSTEN | 6.06 |
| MKRIRIPMTLALGAALTIAPLSFTGFGPAGASAEEN | 3.89 |
| MRKKRVITCVMAASLTLGSLLPAGYSSAKED | 3.75 |
| MKNMSCKLVVSVTLFFSFLTIGPLVFPFAHAQNS | 4.97 |
| MRKRKILLSSALSLGMLVSAAPVLATSS | 2.04 |
| MKLSVKIAGVLTVAAAAMKATAKGN | 7.76 |
| MIAYFGKCLLLVTIMFLGVLGMQQANHG | 5.4 |
| MKQGKFSVFLILLLMLTLVVAPKEKCEAASS | 1.62 |
| MTGMLGSMLLITAGILVFFAVVVKDVFAAGL | 4.32 |
| MMGRKVLTGSVLSLGLLVSASPAFATSP | 2.07 |
| MKNMSCKLVVSVTLFFSFLTAHAQNS | 6.96 |
| MKKMLGKLLITAGILVFFAVVVKDVFSAGL | 3.11 |
| MKKRLIAPMLLSAASLAFFAMSGSAQAAAR | 4.69 |
| MYKKFVPFAVFLFLFFVSFEMMENPHALDY | 7.08 |
| MGRIKTKITILLVLLLLLAGGYMYIN | 5.89 and 6.33 and 5.86 |
| MKKLLAAGIIGLLTVSIASPNFAAEK | 5.52 |
| MKKSQYFIVFICFFVLFSSHPDEAAAADS | 4.15 |
| MNLRKILLSSALSLVSAAPVLATSS | 3.92 |
| MQLGKKLSVAVAASFMSLSISLPGVQAAEG | 2.25 |
| MKVCQKSIVRTNFLVSLIIGTFVISVPFMANAQSD | 2.34 |
| MPYLKRKYRLLVTGLFMSLFAVTATASAQTG | 1.78 |
| MRKKCSVCKRILVLLLSCLSGKSAYAATS | 7.44 |
| MFKFKKNTRGGLSAALMSISLFSATASAAST | 3.49 |

| Sequence | AmyQ secretion efficiency |
| --- | --- |
| MLKKKWMVGLLAGCLAAGGFSYNVFATEN | 5.37 |
| MKKKQVMLALTAAAGLGLTALHSAPASVVAVAASAKAAPL | 1.02 |
| MLTKRLLTIYIMLLGLIAWFPGAAQAAED | 2.99 |
| MMKRSSLIMMTGLLFGLTSPAFAAEK | 3.11 |
| MHLIRAAGAVCLAVVLIAGCRFNEDQHQAEEENT | 4.77 |
| MGLGLLLSVAVAASFMSLSISLPGVQAAEG | 2.94 |
| MKLAKRVSALTPSTTLAITAKAARK | 7.54 |
| MTKKAWFLPLVCVLLIVIALIFSFASGWLAPAASASAQTT | 2.12 |
| MKKTIMSFVAVAALSTTAFGAHPTASAKEI | 2.53 |
| MKKKQVMLALTAAAGLGLTALHSAPAAKAAPK | 1.55 |
| MKRSISRKITCLLITLLTMGGMIASPASAAGT | 2.01 |
| MKRTSTAYLLLGILCSAAVFLIGAPSRALGAEV | 2.85 |
| MRRKRFTALAVFLLCFMPAAKIEHTQASLL | 5.25 |
| MNLWMRKTLVVLFTIVTFGLVSPPAALMADKP | 2.15 |
| MKKMKKSGKRFLLALTIHVGEASAVIV | 6.51 |
| MKKLLAAGIIGLLTVSIASPWFAAEK | 7.98 |
| MLCVMMLLFSAIASFPVSAQIKDQ | 5.57 |
| MNLRKILLSSALSLGMLVSAAPGLATSS | 3.12 |
| MRKRRTIFAFLTGLMMFGTITAASASPD | 4.74 |
| MKKKQVMLALTAAAGLGLTALHSAPAAKVAPL | 6.92 |
| MKRNIFNNINLSLLSTLLIGIMLLTFAPSAFAKQD | 2 |
| MKLAKRVSALTPSTTLAITGFVGSTTFTAPTAKAKEL | 6.19 |
